The values that follow are results of earlier work, collected in paper PMC8535836.

The data set deals with Neuroplastin Np65 Ig1 (Rattus norvegicus) (UniProt P97546). Kind of data set: Surface Plasmon Resonance.

In the case of “Neuroplastin Np65 Ig1 (from UniProt P97546)”, the Kd – broadly, a measure of binding affinity in units of concentration – was 520 nM.
